Results taken from patent US20190284292A1 (IMMUNOAH THERAPEUTICS, published 2019).

B1: ZW106 (antibody, V domains shown)
VH: QVQLQQPESELVRPGGSVKLSCKASGYTFTSYWMDWVKQRHGQGLEWIGNIYPDSGGTNYAEKFKSKATLTVDTSSSTAYMHLSSLTSEDSAVYYCTREEALGGYYELTYWGQGTLVTVSA
VL: DIVLTQSPASLPVSLGQRATISCRASQSVSTSSYSYMHWYQQKPGQPPKLLIKYASNLESGVPARFSGSGSGTDFTLNIHPVEEEDTATYYCQHSWEIPYTFGGGTKLEIE
notes: Mouse monoclonal antibody against human 4-1BB; also called clone ZW106; 4-1BB mAb
B2: ZW104 (antibody, V domains shown)
VH: QVQLQQSGAELARPGASVKMSCKASGYIFTTYAMHWVKQRPGQGLEWIGYINPTTVYTIYNQKFKDKATLTADKSSSTAYMQLSSLTSEDSAVYYCARLGGHWYFDVWGAGTTVTVSS
VL: not shown
notes: Mouse monoclonal antibody against human 4-1BB from a hybridoma; also called clone ZW104; 4-1BB mAb
B3: ZW103 (antibody, V domains shown)
VH: QVQLQQSGAELVRPGVSVKISCKGSGYTFTDYAMHWVKQSHVKSLEWIGGISTYNGDASYNQKFKGKATMTVDKSSRTAYMELVRLTSEDSAIYYCAPSNYGYAMDYWGQGTSVTVSS
VL: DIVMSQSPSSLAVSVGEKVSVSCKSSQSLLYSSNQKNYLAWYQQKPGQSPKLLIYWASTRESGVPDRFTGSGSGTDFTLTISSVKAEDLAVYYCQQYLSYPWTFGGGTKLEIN
notes: Mouse monoclonal antibody against human 4-1BB from a hybridoma; also called clone ZW103; 4-1BB mAb
B4: ZW107 (antibody, V domains shown)
VH: QVQLQQSGAELVRPGTSVKISCKASGYAFTNYWLGWVKQRPGHGLEWIGDIYPGNGNNYYSEKFKDKATLTADKSSSTVYIRLSSLTSEDSAVYFCARHGSFRSAMDYWGQGTSVTVSS
VL: DIQMTQSPASPSASVGETVTITCRASENIYSYLAWYQQKQGKSPQLLVYNAKTLADGVPSRFSGSGSGTQFSLKINSLQPEDFGSYYCQHHYGTPPTFGGGTKLEIK
notes: Mouse monoclonal antibody against human 4-1BB; also called clone ZW107; 4-1BB mAb

How the values were obtained:
human 4-1BB [1] = target: T1, human 4-1BB (human, UniProt Q07011 24-255); test: binding to 293T cells expressing human 4-1BB
T1 construct: whole, on cells; Also used here for the native receptor on human T cells in the co-stimulation assay; also called CD137; h4-1BB
T1 sequence (Q07011 24-255): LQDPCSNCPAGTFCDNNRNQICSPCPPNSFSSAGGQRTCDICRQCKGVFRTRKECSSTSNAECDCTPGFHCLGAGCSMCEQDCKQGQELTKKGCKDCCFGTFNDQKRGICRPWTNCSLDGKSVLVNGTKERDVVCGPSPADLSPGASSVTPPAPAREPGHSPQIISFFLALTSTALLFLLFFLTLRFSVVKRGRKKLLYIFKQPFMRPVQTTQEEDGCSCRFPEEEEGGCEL

human 4-1BB [2] = target: T1, human 4-1BB; test: flow cytometry, staining of 293T cells transfected with human 4-1BB, compared with untransfected 293T cells

Binder | binding result (human 4-1BB [1]) | binding result (human 4-1BB [2])
B1 | binds | –
B2 | – | binds
B3 | – | binds
B4 | binds | –
